{"source": "patent US20250135043A1", "about": "“DUAL-TARGETING COMPOUND FOR FIBROBLAST ACTIVATION PROTEIN (FAP) AND INTEGRIN avB3, PREPARATION METHOD THEREFOR AND USE THEREOF” (YANTAI LANNACHENG BIOTECHNOLOGY CO., LTD., priority 2022, published 2025)", "key": {"integrin αvβ3": {"target": "T1, integrin αvβ3 (Homo sapiens, UniProt P05106+P06756)", "T1 construct": "endogenous in cells; host or cells: U87MG tumor cells", "T1 sequence (P06756 31-889 limits assumed)": "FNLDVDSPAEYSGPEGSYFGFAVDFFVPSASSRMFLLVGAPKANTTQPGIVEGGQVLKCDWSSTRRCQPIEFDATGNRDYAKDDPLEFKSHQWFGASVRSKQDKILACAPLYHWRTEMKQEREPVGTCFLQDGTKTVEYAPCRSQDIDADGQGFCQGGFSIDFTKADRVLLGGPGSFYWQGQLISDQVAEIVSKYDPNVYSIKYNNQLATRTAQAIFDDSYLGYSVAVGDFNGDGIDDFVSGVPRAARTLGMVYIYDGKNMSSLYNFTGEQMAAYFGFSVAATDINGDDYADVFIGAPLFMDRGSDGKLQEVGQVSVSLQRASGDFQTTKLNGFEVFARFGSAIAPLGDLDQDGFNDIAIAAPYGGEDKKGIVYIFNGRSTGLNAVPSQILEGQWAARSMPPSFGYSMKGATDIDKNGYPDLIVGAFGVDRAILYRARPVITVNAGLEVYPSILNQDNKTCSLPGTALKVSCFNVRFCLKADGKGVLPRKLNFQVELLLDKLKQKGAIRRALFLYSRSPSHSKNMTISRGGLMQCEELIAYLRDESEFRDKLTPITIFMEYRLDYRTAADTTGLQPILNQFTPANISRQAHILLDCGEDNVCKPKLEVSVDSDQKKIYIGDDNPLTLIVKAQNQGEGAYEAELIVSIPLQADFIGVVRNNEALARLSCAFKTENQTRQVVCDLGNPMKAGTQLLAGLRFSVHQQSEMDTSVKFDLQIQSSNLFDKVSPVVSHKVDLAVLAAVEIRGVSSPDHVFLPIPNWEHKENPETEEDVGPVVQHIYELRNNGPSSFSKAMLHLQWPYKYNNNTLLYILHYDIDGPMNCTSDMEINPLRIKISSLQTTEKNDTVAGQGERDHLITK", "T1 sequence (P06756 891-1048 partner limits assumed)": "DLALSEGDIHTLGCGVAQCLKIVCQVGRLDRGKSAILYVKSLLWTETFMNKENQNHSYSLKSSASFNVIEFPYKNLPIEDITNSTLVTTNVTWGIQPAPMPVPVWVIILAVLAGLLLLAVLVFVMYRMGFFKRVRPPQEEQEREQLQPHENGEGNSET", "T1 sequence (P05106 27-788)": "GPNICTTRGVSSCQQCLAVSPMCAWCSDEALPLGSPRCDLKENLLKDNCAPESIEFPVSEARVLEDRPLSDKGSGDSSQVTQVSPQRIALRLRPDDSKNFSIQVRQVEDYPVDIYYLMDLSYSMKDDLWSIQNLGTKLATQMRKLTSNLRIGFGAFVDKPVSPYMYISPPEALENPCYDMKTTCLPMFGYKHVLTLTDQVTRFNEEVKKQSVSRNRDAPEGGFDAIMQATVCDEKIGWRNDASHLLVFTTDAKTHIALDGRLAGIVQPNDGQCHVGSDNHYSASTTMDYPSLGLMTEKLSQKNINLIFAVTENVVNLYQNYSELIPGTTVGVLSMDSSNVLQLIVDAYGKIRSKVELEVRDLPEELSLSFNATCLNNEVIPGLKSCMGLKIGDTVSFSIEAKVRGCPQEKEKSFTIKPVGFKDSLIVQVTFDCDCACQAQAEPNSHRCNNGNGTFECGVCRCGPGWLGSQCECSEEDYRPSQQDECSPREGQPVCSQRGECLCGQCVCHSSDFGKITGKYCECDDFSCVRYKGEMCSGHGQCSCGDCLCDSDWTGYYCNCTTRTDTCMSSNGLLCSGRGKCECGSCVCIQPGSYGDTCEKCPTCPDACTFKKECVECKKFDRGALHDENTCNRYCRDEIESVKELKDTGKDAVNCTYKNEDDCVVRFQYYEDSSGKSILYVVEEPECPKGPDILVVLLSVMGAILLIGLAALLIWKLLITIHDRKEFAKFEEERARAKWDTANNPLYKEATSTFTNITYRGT", "assay": "Cell binding experiment in U87MG tumor cells", "quoted_text": "A cell binding experiment was carried out in HT1080-FAP and U87MG tumor cells, and test results are shown in Part B and Part C of FIG. 52, respectively."}, "[1]": {"system": "HT1080-FAP tumor-bearing mice", "details": "mouse, in vivo", "method": "Then, under anaesthesia with isoflurane, the ^68Ga-FAPI-RGD (V-25) group was subjected to MicroPET imaging after administration for 0-240 min, respectively, and the other groups were subjected to MicroPET imaging after administration for 0-120 min, respectively. In FIG. 53, Part A, Part C and Part E show maximum-density MicroPET projection images of the HT1080-FAP tumor-bearing mice (n=3) at different time points after the intravenous injection of the three groups of mice, respectively, and Part B, Part D and Part F show uptake in various organs or tissues (such as blood, liver, kidney, tumors and muscles) of the three groups of mice at different time points after the injection, respectively, where three uptake amounts in each group correspond to, from left to right, 0.5 h, 1 h and 2 h after the injection, respectively. […] A specific binding property of the ^68Ga-FAPI-RGD (V-25) to integrin αvβ3 and FAP in vivo is proven by a blocking experiment. The ^68Ga-FAPI-RGD (V-25) and C(RGDfK) or FAPI-02 were co-injected into HT1080-FAP tumor-bearing mice, and MicroPET imaging results and organ uptake results are shown in FIG. 54. […]"}, "[2]": {"system": "tumors of patients (pancreatic cancer, non small cell lung cancer, small cell lung cancer, nasopharyngeal carcinoma)", "details": "human, in vivo, iv", "method": "In a clinical trial in the real world, a patient with pancreatic cancer (one), a patient with non small cell lung cancer (one), a patient with small cell lung cancer (one) and a patient with nasopharyngeal carcinoma (one) were used as subjects. An intravenous injection dose (1.8-2.2 MBq [0.05-0.06 mCi]/kg) of the ^68Ga-FAPI-RGD (V-25) was calculated based on a body weight of each subject. After intravenous injection was performed for 3 h, data was obtained by a hybrid PET/CT scanner (Discovery MI, GE Health care, Milwaukee, WI, USA). A maximum standard uptake value (SUVmax) was automatically calculated by using a region of interest (ROI) drawn on a transaxial image. The SUVmax value of the ^68Ga-FAPI-RGD (V-25) targeting two targets is higher than that of ^68Ga-FAPI-46 targeting the single target, FAP, in different types of tumors, and the SUVmax value is increased by about 30-50%, proving that the design of targeting two targets can improve the number and utilization efficiency of effective receptors in tumors, thereby improving the uptake in tumors."}}}
{"compound": "N#C[C@@H]1CCCN1C(=O)CNC(=O)c1ccnc2ccc(OCCCN3CCN(C(=O)CCOCCOCCNC(=O)[C@H](CCC(=O)NCCOCCOCCC(=O)NCCCC[C@@H]4NC(=O)[C@@H](Cc5ccccc5)NC(=O)[C@H](CC(=O)O)NC(=O)CNC(=O)[C@H](CCCNC(=N)N)NC4=O)NC(=O)CN4CCN(CC(=O)O)CCN(CC(=O)O)CC4)CC3)cc12", "note": "[^68Ga-FAPI-RGD (V-25), metal not drawn]", "values": [{"measurement": "IC50", "setting": "integrin αvβ3", "result": 18.9, "unit": "nM"}, {"measurement": "tumor uptake compared with monomers", "setting": "[1]", "result": "higher"}, {"measurement": "SUVmax value compared with 68Ga-FAPI-46", "setting": "[2]", "result": "higher"}, {"measurement": "increase of SUVmax value over 68Ga-FAPI-46", "setting": "[2]", "result": "30-50%"}]}
